# Source: publication PMC11257983 (2024)
# B1: Flag-CNK^2–549 [Drosophila] / GST-HYP [Drosophila] (parent complex)
# chain 1: AYINIAEWTPDQVTDWIKGLDESMKGYLYEFSKQEIGGRALLNIRPYELENLGMLRIGHQEIVLEAVENLRNFHYHLKNDNLQFMALHVATAAKNLHRELARNHAESTKIDTRILHDITRTIATLKPLVGSLERTPFRKQEMYREYCGNVLKCGLELATIAHRDRFALQPVPAIRQSAERLENLANFVIQDISDPMVLQPASLNLVTLKKRESELGFNIESSYNGIHRVTDIKYNSPAHNSGKIEDGDEIVQINYQTVVGWQHRTVLEHLREALPDVVLTVKKRPKHTKMFGQIYMQPYRLPSKKRNMAARWAAQMPSPRAAFLTLDTEQLATGGTGSAVPDPSKSLSSEKREVLTKANPVSSASDSDSSCSDIPTPTDPKLAAREIRLYYPKPRALLQRRNTICGCEYLSLKNSDLVVPSWHERKPGIGSPTNCDPGSPSIRDKSISFGYGLEMAARPTTCIGIAGDTSTDKARRMFHEARKLKQLTEDSQREFLVDRYKPGVSKVVRFDAKEDYVMKNEKFICNVENTILETFEPIPFADEGDEDA
# chain 2: MGEETINSTQNKTRTKTTRPKAVYLWTVSDVLKWYRRHCGEYTQYEQLFAQHDITGRALLRITDSSLQRMGVTDNRDREAIWREIVKQRLKTDIMEIRDMERLNIY
# Variants of: B1
# Test: GST pull-down, immunoblot quantification; S2 cells; only Flag-CNK2–549 and GST-HYP co-expressed; anti-Flag (CNK) blot; parent: 1
row,Variant,ratio to parent
1,chain 1 AYINIAEWTPDQVTDWIKGLDESMKGYLYEFSKQEIGGRALLNIFPYELENLGMLRIGHQEIVLEAVENLRNFHYHLKNDNLQFMALHVATAAKNLHRELARNHAESTKIDTRILHDITRTIATLKPLVGSLERTPFRKQEMYREYCGNVLKCGLELATIAHRDRFALQPVPAIRQSAERLENLANFVIQDISDPMVLQPASLNLVTLKKRESELGFNIESSYNGIHRVTDIKYNSPAHNSGKIEDGDEIVQINYQTVVGWQHRTVLEHLREALPDVVLTVKKRPKHTKMFGQIYMQPYRLPSKKRNMAARWAAQMPSPRAAFLTLDTEQLATGGTGSAVPDPSKSLSSEKREVLTKANPVSSASDSDSSCSDIPTPTDPKLAAREIRLYYPKPRALLQRRNTICGCEYLSLKNSDLVVPSWHERKPGIGSPTNCDPGSPSIRDKSISFGYGLEMAARPTTCIGIAGDTSTDKARRMFHEARKLKQLTEDSQREFLVDRYKPGVSKVVRFDAKEDYVMKNEKFICNVENTILETFEPIPFADEGDEDA [chain 1 R45F],0.73
2,chain 1 AYINIAEWTPDQVTDWIKGLDESMKGYLYEFSKQEIGGRALLNIRPYELENLGMLRIGHQEIVLEAVENLRNFHYHLKNDNLQFMALHVATAAKNLHEELARNHAESTKIDTRILHDITRTIATLKPLVGSLERTPFRKQEMYREYCGNVLKCGLELATIAHRDRFALQPVPAIRQSAERLENLANFVIQDISDPMVLQPASLNLVTLKKRESELGFNIESSYNGIHRVTDIKYNSPAHNSGKIEDGDEIVQINYQTVVGWQHRTVLEHLREALPDVVLTVKKRPKHTKMFGQIYMQPYRLPSKKRNMAARWAAQMPSPRAAFLTLDTEQLATGGTGSAVPDPSKSLSSEKREVLTKANPVSSASDSDSSCSDIPTPTDPKLAAREIRLYYPKPRALLQRRNTICGCEYLSLKNSDLVVPSWHERKPGIGSPTNCDPGSPSIRDKSISFGYGLEMAARPTTCIGIAGDTSTDKARRMFHEARKLKQLTEDSQREFLVDRYKPGVSKVVRFDAKEDYVMKNEKFICNVENTILETFEPIPFADEGDEDA [chain 1 R98E],1.27
3,chain 1 AYINIAEWTPDQVTDWIKGLDESMKGYLYEFSKQEIGGRALLNIRPYELENLGMLRIGHQEIVLEAVENLRNFHYHLKNDNLEFMALHVATAAKNLHRELARNHAESTKIDTRILHDITRTIATLKPLVGSLERTPFRKQEMYREYCGNVLKCGLELATIAHRDRFALQPVPAIRQSAERLENLANFVIQDISDPMVLQPASLNLVTLKKRESELGFNIESSYNGIHRVTDIKYNSPAHNSGKIEDGDEIVQINYQTVVGWQHRTVLEHLREALPDVVLTVKKRPKHTKMFGQIYMQPYRLPSKKRNMAARWAAQMPSPRAAFLTLDTEQLATGGTGSAVPDPSKSLSSEKREVLTKANPVSSASDSDSSCSDIPTPTDPKLAAREIRLYYPKPRALLQRRNTICGCEYLSLKNSDLVVPSWHERKPGIGSPTNCDPGSPSIRDKSISFGYGLEMAARPTTCIGIAGDTSTDKARRMFHEARKLKQLTEDSQREFLVDRYKPGVSKVVRFDAKEDYVMKNEKFICNVENTILETFEPIPFADEGDEDA [chain 1 Q83E],1.12

# Variants of: B1
# Test: GST pull-down, immunoblot quantification; S2 cells; Flag-CNK2–549, V5-KSR, Myc-MEK, GST-HYP co-expressed; anti-CNK blot; parent: 1
row,Variant,ratio to parent
1,chain 1 AYINIAEWTPDQVTDWIKGLDESMKGYLYEFSKQEIGGRALLNIFPYELENLGMLRIGHQEIVLEAVENLRNFHYHLKNDNLQFMALHVATAAKNLHRELARNHAESTKIDTRILHDITRTIATLKPLVGSLERTPFRKQEMYREYCGNVLKCGLELATIAHRDRFALQPVPAIRQSAERLENLANFVIQDISDPMVLQPASLNLVTLKKRESELGFNIESSYNGIHRVTDIKYNSPAHNSGKIEDGDEIVQINYQTVVGWQHRTVLEHLREALPDVVLTVKKRPKHTKMFGQIYMQPYRLPSKKRNMAARWAAQMPSPRAAFLTLDTEQLATGGTGSAVPDPSKSLSSEKREVLTKANPVSSASDSDSSCSDIPTPTDPKLAAREIRLYYPKPRALLQRRNTICGCEYLSLKNSDLVVPSWHERKPGIGSPTNCDPGSPSIRDKSISFGYGLEMAARPTTCIGIAGDTSTDKARRMFHEARKLKQLTEDSQREFLVDRYKPGVSKVVRFDAKEDYVMKNEKFICNVENTILETFEPIPFADEGDEDA [chain 1 R45F],0.79
2,chain 1 AYINIAEWTPDQVTDWIKGLDESMKGYLYEFSKQEIGGRALLNIRPYELENLGMLRIGHQEIVLEAVENLRNFHYHLKNDNLQFMALHVATAAKNLHEELARNHAESTKIDTRILHDITRTIATLKPLVGSLERTPFRKQEMYREYCGNVLKCGLELATIAHRDRFALQPVPAIRQSAERLENLANFVIQDISDPMVLQPASLNLVTLKKRESELGFNIESSYNGIHRVTDIKYNSPAHNSGKIEDGDEIVQINYQTVVGWQHRTVLEHLREALPDVVLTVKKRPKHTKMFGQIYMQPYRLPSKKRNMAARWAAQMPSPRAAFLTLDTEQLATGGTGSAVPDPSKSLSSEKREVLTKANPVSSASDSDSSCSDIPTPTDPKLAAREIRLYYPKPRALLQRRNTICGCEYLSLKNSDLVVPSWHERKPGIGSPTNCDPGSPSIRDKSISFGYGLEMAARPTTCIGIAGDTSTDKARRMFHEARKLKQLTEDSQREFLVDRYKPGVSKVVRFDAKEDYVMKNEKFICNVENTILETFEPIPFADEGDEDA [chain 1 R98E],0.77
3,chain 1 AYINIAEWTPDQVTDWIKGLDESMKGYLYEFSKQEIGGRALLNIRPYELENLGMLRIGHQEIVLEAVENLRNFHYHLKNDNLEFMALHVATAAKNLHRELARNHAESTKIDTRILHDITRTIATLKPLVGSLERTPFRKQEMYREYCGNVLKCGLELATIAHRDRFALQPVPAIRQSAERLENLANFVIQDISDPMVLQPASLNLVTLKKRESELGFNIESSYNGIHRVTDIKYNSPAHNSGKIEDGDEIVQINYQTVVGWQHRTVLEHLREALPDVVLTVKKRPKHTKMFGQIYMQPYRLPSKKRNMAARWAAQMPSPRAAFLTLDTEQLATGGTGSAVPDPSKSLSSEKREVLTKANPVSSASDSDSSCSDIPTPTDPKLAAREIRLYYPKPRALLQRRNTICGCEYLSLKNSDLVVPSWHERKPGIGSPTNCDPGSPSIRDKSISFGYGLEMAARPTTCIGIAGDTSTDKARRMFHEARKLKQLTEDSQREFLVDRYKPGVSKVVRFDAKEDYVMKNEKFICNVENTILETFEPIPFADEGDEDA [chain 1 Q83E],0.4
